For test [1], the target named is T1, GB1-SRPK1 (full-length SRPK1 with N-terminal GB1 solubility tag) (Homo sapiens, UniProt Q96SB4).
T1 construct: His tag; made in house; host or cells: E. coli BL21-CodonPlus (DE3)-RP
Nature of the test: Isothermal titration calorimetry (ITC) of ICP27 peptides with GB1-SRPK1. In kind it is binding. The note with it: 25°C, 10 μM GB1-SRPK1 in cell, 120 μM peptide in syringe, 20 mM HEPES, 150 mM NaCl, 1 mM TCEP pH 7.4, single-site model, mean of 3 runs (± SD). From the text: The RGG box in full-length ICP27 (Fig. 1A) was previously identified by mutagenesis experiments as the segment necessary for interaction with SRPK1 ([27]), with the binding modulated by arginine methylation ([51]). […] To further confirm and map the RGG box interaction with SRPK1, we expressed and purified ^15N-labeled ICP27^103–155 and using the established backbone assignment ([55]) carried out nuclear magnetic resonance (NMR) signal perturbation mapping by comparison of ^1H-^15N correlation spectra in the presence and absence of unlabeled GB1-SRPK1 (Fig. 1E). […] These solution data together confirmed that SRPK1 binds with high affinity to a relatively short region of ICP27 containing the RGG box, with possible further contributions from nearby residues 112 to 121, whereas other residues retain significant flexibility when the peptide is bound. […]
GB1-SRPK1 and ICP27 peptides were placed into Slide-a-Lyzer G2 cassettes (Thermo Fisher) and dialyzed within identical buffer consisting of 20 mM HEPES, 150 mM NaCl, and 1 mM TCEP [Tris(2-carboxyethyl)phosphine hydrochloride] […] Protein concentrations were measured by absorbance at 280 nm using extinction coefficients ([67]) of 86,580 M^−1 cm^−1 and 5,500 M^−1 cm^−1 for GB1-SRPK1 and ICP27^103–155, respectively. […]

For a further test, the target named is SRPK1 (Homo sapiens) (UniProt Q96SB4). The following applies: cited from earlier work.
Sequence of SRPK1 (Homo sapiens) (Q96SB4 whole entry): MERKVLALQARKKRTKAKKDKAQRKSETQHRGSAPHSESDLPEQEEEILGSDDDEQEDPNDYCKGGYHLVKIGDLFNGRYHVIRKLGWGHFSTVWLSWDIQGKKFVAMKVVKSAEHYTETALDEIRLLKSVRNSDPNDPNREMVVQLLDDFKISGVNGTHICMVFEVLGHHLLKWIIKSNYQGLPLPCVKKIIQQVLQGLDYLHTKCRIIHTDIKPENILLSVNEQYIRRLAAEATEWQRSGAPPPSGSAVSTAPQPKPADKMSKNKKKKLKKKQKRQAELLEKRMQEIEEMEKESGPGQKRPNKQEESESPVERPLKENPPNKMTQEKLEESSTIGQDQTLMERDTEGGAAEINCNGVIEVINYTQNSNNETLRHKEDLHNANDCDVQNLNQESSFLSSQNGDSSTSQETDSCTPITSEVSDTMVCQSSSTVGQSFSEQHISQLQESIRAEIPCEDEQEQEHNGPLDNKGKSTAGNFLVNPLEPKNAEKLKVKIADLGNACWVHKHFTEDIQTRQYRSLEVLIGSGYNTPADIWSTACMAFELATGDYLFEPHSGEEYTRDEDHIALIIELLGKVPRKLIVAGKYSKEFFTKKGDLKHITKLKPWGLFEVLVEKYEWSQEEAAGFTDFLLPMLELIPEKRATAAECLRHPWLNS
In test [2] the target is T2, full-length SRPK1 tagged with an N-terminal GB1 solubility tag (human, UniProt Q96SB4 1-655).
T2 construct: serine-arginine protein kinase 1 (SRPK1), human, full length; probably also carries a His tag used for purification; also called GB1-SRPK1; serine-arginine protein kinase 1; source: E. coli, purified (GST or His tag purification, size exclusion chromatography); not shown: GB1, N-terminal, kept
T2 sequence (Q96SB4 whole entry): as above
Nature of the test: ITC; 10 μM GB1-SRPK1 in the sample cell, 120 μM ICP27 peptide in the syringe; 25°C; 20 mM HEPES, 150 mM NaCl, 1 mM TCEP, pH 7.4; single-site binding model. The following applies: both partners purified.

Square brackets hold non-standard residues; d marks the D form. Ends that are not written are not given here.

T1 sequence (Q96SB4 whole entry): as above

Molecule `CC(C)C[C@H](NC(=O)[C@H](CCCNC(=N)N)NC(=O)[C@H](CO)NC(=O)[C@H](Cc1c[nH]c2ccccc12)NC(=O)[C@@H](NC(=O)[C@@H](N)CO)C(C)C)C(=O)NCC(=O)N[C@@H](C)C(=O)N[C@@H](CCCNC(=N)N)C(=O)N[C@@H](CCCNC(=N)N)C(=O)N1CCC[C@H]1C(=O)N[C@@H](CO)C(=O)N[C@@H](CS)C(=O)N[C@@H](CO)C(=O)N1CCC[C@H]1C(=O)N[C@@H](CCC(=O)O)C(=O)N[C@@H](CCCNC(=N)N)C(=O)N[C@@H](Cc1c[nH]cn1)C(=O)NCC(=O)NCC(=O)N[C@@H](CCCCN)C(=O)N[C@H](C(=O)N[C@@H](C)C(=O)N[C@@H](CCCNC(=N)N)C(=O)N[C@@H](CC(C)C)C(=O)N[C@@H](CCC(N)=O)C(=O)N1CCC[C@H]1C(=O)N1CCC[C@H]1C(=O)N1CCC[C@H]1C(=O)N[C@H](C(=O)N[C@@H](CCCCN)C(=O)N[C@@H](C)C(=O)N[C@@H](CCC(N)=O)C(=O)N1CCC[C@H]1C(=O)N[C@@H](C)C(=O)N[C@@H](CCCNC(=N)N)C(=O)NCC(=O)NCC(=O)N[C@@H](CCCNC(=N)N)C(=O)N[C@@H](CCCNC(=N)N)C(=O)NCC(=O)N[C@@H](CCCNC(=N)N)C(=O)N[C@@H](CCCNC(=N)N)C(=O)N[C@@H](CCCNC(=N)N)C(=O)NCC(=O)N[C@@H](CCCNC(=N)N)C(=O)NCC(=O)N[C@@H](CCCNC(=N)N)C(=O)NCC(=O)NCC(=O)N1CCC[C@H]1C(=O)NCC(=O)N[C@@H](C)C(=O)O)[C@@H](C)O)C(C)C` [ICP27^103–155] displayed a Kd in test [1] of 93.9 nM.
Turning to SRSF1 (from UniProt Q07955), the Kd in the test with SRPK1 (Homo sapiens) is 50 nM.
`CC(C)C[C@H](NC(=O)[C@H](CCCNC(=N)N)NC(=O)[C@H](CO)NC(=O)[C@H](Cc1c[nH]c2ccccc12)NC(=O)[C@@H](NC(=O)[C@@H](N)CO)C(C)C)C(=O)NCC(=O)N[C@@H](C)C(=O)N[C@@H](CCCNC(=N)N)C(=O)N[C@@H](CCCNC(=N)N)C(=O)N1CCC[C@H]1C(=O)N[C@@H](CO)C(=O)N[C@@H](CS)C(=O)N[C@@H](CO)C(=O)N1CCC[C@H]1C(=O)N[C@@H](CCC(=O)O)C(=O)N[C@@H](CCCNC(=N)N)C(=O)N[C@@H](Cc1c[nH]cn1)C(=O)NCC(=O)NCC(=O)N[C@@H](CCCCN)C(=O)N[C@H](C(=O)N[C@@H](C)C(=O)N[C@@H](CCCNC(=N)N)C(=O)N[C@@H](CC(C)C)C(=O)N[C@@H](CCC(N)=O)C(=O)N1CCC[C@H]1C(=O)N1CCC[C@H]1C(=O)N1CCC[C@H]1C(=O)N[C@H](C(=O)N[C@@H](CCCCN)C(=O)N[C@@H](C)C(=O)N[C@@H](CCC(N)=O)C(=O)N1CCC[C@H]1C(=O)N[C@@H](C)C(=O)N[C@@H](CCCNC(=N)N(C)C)C(=O)NCC(=O)NCC(=O)N[C@@H](CCCNC(=N)N)C(=O)N[C@@H](CCCNC(=N)N)C(=O)NCC(=O)N[C@@H](CCCNC(=N)N)C(=O)N[C@@H](CCCNC(=N)N)C(=O)N[C@@H](CCCNC(=N)N)C(=O)NCC(=O)N[C@@H](CCCNC(=N)N(C)C)C(=O)NCC(=O)N[C@@H](CCCNC(=N)N(C)C)C(=O)NCC(=O)NCC(=O)N1CCC[C@H]1C(=O)NCC(=O)N[C@@H](C)C(=O)O)[C@@H](C)O)C(C)C` [methylated ICP27^103–155]: in test [1], the Kd came to 261 nM.

B1: synthetic peptide of ICP27 103-155, dimethylated on R138, R148 and R150 (peptide)
peptide: SVWSRLGARRPSCSPEQHGGKVARLQPPPTKAQPA[ADMA]GGRRGRRRG[ADMA]G[ADMA]GGPGA
notes: HSV-1 ICP27, residues 103 to 155; also called methylated ICP27^103–155; methylated ICP27^103–155 peptide; source: synthetic peptide (Peptide Protein Research)
The molecule B1 returned an equilibrium dissociation constant (Kd) in test [2] of 262 ± 21 nM.

B2: synthetic peptide of ICP27 103-155, unmodified (peptide)
peptide: SVWSRLGARRPSCSPEQHGGKVARLQPPPTKAQPARGGRRGRRRGRGRGGPGA
notes: also called unmodified ICP27^103–155; nonmethylated ICP27^103–155 peptide; source: synthetic peptide (Peptide Protein Research)
Turning to B2, binding in test [2] was characterised by a dissociation constant (Kd) of 94 ± 23 nM.

The record behind these values is article PMC6805999, “Molecular Mechanism of SR Protein Kinase 1 Inhibition by the Herpes Virus Protein ICP27” (mBio, 2019).
